From the supplement of paper PMC10126150
± gives the standard deviation of the averaged measurements.

Tested on: ATP
Test: switch fluorescence ratio, 500 uM ATP over buffer (Cy3 cluster intensity, sum of 5 cycles each) (fold (ratio)); higher = stronger signal-on switching upon ATP binding; sequences stand for … in TCGTCGGCAGCGTCAGATGTGTATAAGAGACAGTTTTTTTTTTTTTTTTTTTTTTTTT…TC
Settings: aptamer strand: ATP DNA aptamer (quencher-CACCTGGGGGAGTATTGCGGAGGAAGG + anchor), 100 nM annealed; ATP concentration: 500 uM
Outline: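 Per cluster, summed Cy3 intensity from the target cycles was divided by that from the buffer cycles to give the fluorescence ratio, then averaged per switch-domain sequence. Clusters outside 100-1000 RFU were excluded. The Cy3-labelled switching-strand clusters, on a modified Illumina MiSeq flow-cell, were annealed to 100 nM quencher-labelled ATP aptamer and imaged in selection buffer, then after 15 min with 500 uM ATP at 22 °C, for five cycles with NaOH stripping and re-annealing between them.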
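Note: ATP exposure 15 min at 22 °C before imaging.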

| Sequence | switch fluorescence ratio |
| --- | --- |
| AGGAATGGTT | 0.992 ± 0.041 |
| AGGAATTTTC | 0.994 ± 0.032 |
| AGGACATTGG | 0.966 ± 0.023 |
| AGGACGAGCA | 1.12 ± 0.015 |
| AGGACGGGGA | 0.99 ± 0.019 |
| AGGACGTTTT | 0.962 ± 0.01 |
| AGGACTTGTG | 0.972 ± 0.023 |
| AGGACTTTGG | 1.05 ± 0.056 |
| AGGAGACAAG | 0.948 ± 0.053 |
| AGGAGATACT | 1.09 ± 0.15 |
| AGGAGATTTT | 0.957 ± 0.032 |
| AGGAGCTGCG | 0.998 ± 0.038 |
| AGGAGGACGG | 1.01 ± 0.042 |
| AGGAGGATCG | 0.97 ± 0.079 |
| AGGAGGCCAG | 0.969 ± 0.05 |
| AGGAGGCGTT | 0.992 ± 0.029 |
| AGGAGGGACT | 1 ± 0.041 |
| AGGAGGGAG | 1.003 ± 0.0093 |
| AGGAGGGGGA | 1.03 ± 0.045 |
| AGGAGGGGT | 1.02 ± 0.07 |
| AGGAGTATTT | 1 ± 0.024 |
| AGGAGTGGTG | 0.994 ± 0.034 |
| AGGAGTGTTT | 1 ± 0.037 |

| Sequence | switch fluorescence ratio |
| --- | --- |
| AGGAGTTTCG | 1.01 ± 0.044 |
| AGGATACCGC | 1.12 ± 0.048 |
| AGGATAGGGT | 1.02 ± 0.05 |
| AGGATCATGT | 0.966 ± 0.042 |
| AGGATGAAAT | 0.992 ± 0.051 |
| AGGATGGGCG | 0.928 ± 0.039 |
| AGGATTAACA | 1.05 ± 0.013 |
| AGGATTAGGG | 1 ± 0.033 |
| AGGATTATTG | 0.991 ± 0.017 |
| AGGATTGAAC | 0.991 ± 0.018 |
| AGGATTGGTG | 0.999 ± 0.052 |
| AGGATTTATA | 0.991 ± 0.086 |
| AGGCAAAGGG | 0.995 ± 0.044 |
| AGGCAACGGT | 1.01 ± 0.012 |
| AGGCAATATG | 1.19 ± 0.018 |
| AGGCAATTTG | 1 ± 0.071 |
| AGGCACCAAC | 1.16 ± 0.044 |
| AGGCACGACG | 0.9561 ± 0.0074 |
| AGGCACGGGG | 0.9932 ± 0.0087 |
| AGGCACTTTT | 1.04 ± 0.015 |
| AGGCCCACGG | 1.006 ± 0.0067 |
| AGGCCCGGAG | 1.05 ± 0.045 |
| AGGCCGAGGG | 0.985 ± 0.012 |

| Sequence | switch fluorescence ratio |
| --- | --- |
| AGGCCGATGG | 0.983 ± 0.021 |
| AGGCCGGTGC | 1.04 ± 0.03 |
| AGGCCGGTTT | 1.017 ± 0.0061 |
| AGGCCTCAGA | 0.973 ± 0.015 |
| AGGCCTCTGT | 0.99 ± 0.011 |
| AGGCGATATA | 1 ± 0.024 |
| AGGCGATGCG | 0.994 ± 0.097 |
| AGGCGCACGG | 1.01 ± 0.029 |
| AGGCGGCGG | 0.975 ± 0.022 |
| AGGCGGGGGC | 1.03 ± 0.068 |
| AGGCGGTGTG | 0.973 ± 0.036 |
| AGGCGTATAC | 1.79 ± 0.18 |
| AGGCGTGCTT | 0.987 ± 0.032 |
| AGGCGTGGGA | 1.001 ± 0.0083 |
| AGGCGTGTCA | 1.004 ± 0.0083 |
| AGGCGTTCTG | 0.991 ± 0.051 |
| AGGCTAACGA | 1.015 ± 0.0049 |
| AGGCTAGGGG | 1.01 ± 0.042 |
| AGGCTATTTC | 0.994 ± 0.019 |
| AGGCTCATAG | 0.96982 ± 0.00072 |
| AGGCTCATTG | 1.01 ± 0.033 |
| AGGCTGCAG | 0.961 ± 0.037 |
| AGGCTGCGTT | 1.02 ± 0.038 |

| Sequence | switch fluorescence ratio |
| --- | --- |
| AGGCTGGGGT | 1.02 ± 0.031 |
| AGGCTTAGAC | 1.04 ± 0.032 |
| AGGCTTGGTG | 0.988 ± 0.012 |
| AGGCTTGTGT | 0.99 ± 0.077 |
| AGGCTTTTTT | 0.966 ± 0.065 |
| AGGGAAACGG | 0.96 ± 0.018 |
| AGGGAAAGTC | 0.9854 ± 0.0058 |
| AGGGAAATGG | 0.979 ± 0.034 |
| AGGGAACGAC | 1.03 ± 0.05 |
| AGGGAAGAGA | 1 ± 0.021 |
| AGGGAATCGG | 0.976 ± 0.03 |
| AGGGAATGAT | 1.01 ± 0.015 |
| AGGGACGGGG | 0.991 ± 0.047 |
| AGGGAGAGTT | 1.02 ± 0.017 |
| AGGGAGCAGT | 1.018 ± 0.01 |
| AGGGAGGACT | 1.022 ± 0.009 |
| AGGGAGGATC | 1.02 ± 0.017 |
| AGGGAGGGAA | 1.01 ± 0.022 |
| AGGGAGGGTA | 0.9889 ± 0.0098 |
| AGGGAGGTCG | 0.973 ± 0.035 |
| AGGGAGTCTG | 1.018 ± 0.0035 |
| AGGGATCAGC | 1 ± 0.008 |
| AGGGATGCGG | 0.99607 ± 0.00094 |

| Sequence | switch fluorescence ratio |
| --- | --- |
| AGGGATGGGA | 1.01 ± 0.019 |
| AGGGATGTCC | 1.01 ± 0.044 |
| AGGGATGTTT | 0.999 ± 0.026 |
| AGGGCAGGGC | 0.917 ± 0.069 |
| AGGGCAGTGG | 0.9796 ± 0.0025 |
| AGGGCATAGG | 0.9652 ± 0.0066 |
| AGGGCCAGGT | 1.11 ± 0.023 |
| AGGGCCAGTC | 0.998 ± 0.074 |
| AGGGCCGTTG | 0.996 ± 0.035 |
| AGGGCGAAGA | 0.96 ± 0.022 |
| AGGGCGCGTG | 0.995 ± 0.05 |
| AGGGCGGATT | 1.01 ± 0.031 |
| AGGGCGGGAT | 0.965 ± 0.049 |
| AGGGCTGAGC | 0.996 ± 0.052 |
| AGGGCTTTAC | 1.1314 ± 8.1e-05 |
| AGGGGAAATG | 0.9645 ± 0.0024 |
| AGGGGAGAGG | 0.992 ± 0.01 |
| AGGGGAGGAT | 1.1 ± 0.15 |
| AGGGGAGGGG | 1.02 ± 0.042 |
| AGGGGAGTCG | 0.987 ± 0.021 |
| AGGGGAGTTC | 1.04 ± 0.035 |
| AGGGGATATT | 0.996 ± 0.01 |
| AGGGGATCAA | 0.985 ± 0.015 |

| Sequence | switch fluorescence ratio |
| --- | --- |
| AGGGGCAGTT | 0.985 ± 0.02 |
| AGGGGCCAGT | 0.98 ± 0.019 |
| AGGGGCGGTG | 0.994 ± 0.017 |
| AGGGGCGTGA | 0.99 ± 0.011 |
| AGGGGCTGCG | 0.938 ± 0.029 |
| AGGGGGAAAA | 1.47 ± 0.69 |
| AGGGGGAAAT | 0.987 ± 0.035 |
| AGGGGGAACG | 1.01 ± 0.016 |
| AGGGGGAAGT | 0.99 ± 0.045 |
| AGGGGGAGGA | 1.01 ± 0.04 |
| AGGGGGAGTC | 1.02 ± 0.053 |
| AGGGGGATGT | 0.974 ± 0.05 |
| AGGGGGCATC | 1.01 ± 0.07 |
| AGGGGGCGCC | 1.02 ± 0.016 |
| AGGGGGGAAC | 1.01 ± 0.024 |
| AGGGGGGAAG | 0.989 ± 0.023 |
| AGGGGGGATC | 1.01 ± 0.046 |
| AGGGGGGCT | 1.01 ± 0.031 |
| AGGGGGGGAC | 1 ± 0.021 |
| AGGGGGGGGT | 1 ± 0.05 |
| AGGGGGGTCG | 0.992 ± 0.072 |
| AGGGGGGTTT | 1 ± 0.024 |
| AGGGGGTAAC | 1 ± 0.051 |

| Sequence | switch fluorescence ratio |
| --- | --- |
| AGGGGGTACT | 1 ± 0.011 |
| AGGGGGTGCG | 0.988 ± 0.029 |
| AGGGGGTGGG | 0.989 ± 0.02 |
| AGGGGGTGGT | 0.987 ± 0.043 |
| AGGGGGTTAG | 0.989 ± 0.03 |
| AGGGGTACTC | 0.9982 ± 0.0076 |
| AGGGGTAGGC | 0.9893 ± 0.0036 |
| AGGGGTCCCG | 0.93546 ± 0.00063 |
| AGGGGTCGCG | 0.981 ± 0.0054 |
| AGGGGTCTTA | 0.978 ± 0.02 |
| AGGGGTGCTA | 0.9996 ± 0.0095 |
| AGGGGTGGTA | 0.981 ± 0.043 |
| AGGGGTGTAG | 1.03 ± 0.057 |
| AGGGGTGTTG | 0.991 ± 0.032 |
| AGGGGTTAAA | 1.01 ± 0.022 |
| AGGGGTTATC | 1.02 ± 0.026 |
| AGGGGTTCTG | 1.01 ± 0.046 |
| AGGGGTTGAG | 0.998 ± 0.036 |
| AGGGGTTTGG | 0.983 ± 0.024 |
